Results on four molecules are retold here after patent US20180066067A1 (Novartis, published 2018).

First the molecules themselves.
B1: ZNRF3 P103A ECD-TM (receptor, not shown: small tags and cut ends)
chain: KETAFVEVVLFESSPSGDYTTYTTGLTGRFSRAGATLSAEGEIVQMHALGLCNNNDEEDLYEYGWVGVVKLEQPELDPKPCLTVLGKAKRAVQRGATAVIFDVSENPEAIDQLNQGSEDPLKRPVVYVKGADAIKLMNIVNKQKVARARIQHRPPRQPTEYFDMGIFLAFFVVVSLVCLILLVKIKLKQRRSQNSMNRLAV
notes: On transiently transfected HEK293 cells, N-terminally Myc-tagged
B2: Fab clone Ab2 (Fab, V domains shown)
VH: EVQLVESGGGLVKPGGSLRLSCAASGFTFSDYGIHWVRQAPGKGLEWVGRIKSKTDGGITEYAAPVKGRFTISRDDSKNTLYLQMNSLKTEDTAVYYCARAIYYLEAFDVWGQGTLVTVSS
VL: DIELTQPPSVSVSPGQTASITCSGDSLGSYYVHWYQQKPGQAPVLVIYRNKQRPSGIPERFSGSNSGNTATLTISGTQAEDEADYYCQTYDWMYSSRVFGGGTKLTVLG
notes: also called parental Ab2; ZNRF3 hFab
B3: RSPO1-GFP (ligand, UniProt Q2MKA7 21-263, looked up)
chain: SRGIKGKRQRRISAEGSQACAKGCELCSEVNGCLKCSPKLFILLERNDIRQVGVCLPSCPPGYFDARNPDMNKCIKCKIEHCEACFSHNFCTKCKEGLYLHKGRCYPACPEGSSAANGTMECSSPAQCEMSEWSPWGPCSKKQQLCGFRRGSEERTRRVLHAPVGDHAACSDTKETRRCTVRRVPCPEGQKRRKGGQGRRENANRNLARKESKEAGAGSRRRKGQQQQQQQGTVGPLTSAGPA
notes: Used as conditioned medium; The order of the parts follows the printed name; also called R-spondin 1 GFP fusion; R-spondin; not shown: GFP
B4: Fab clone Ab1 (Fab, V domains shown)
VH: QVQLVQSGAEVKKPGASVKVSCKASGYTFTSYHMHWVRQAPGQGLEWMGWINPYTGDTNYAQKFQGRVTMTRDTSISTAYMELSRLRSEDTAVYYCAREKVYMDIWGQGTLVTVSS
VL: DIELTQPPSVSVSPGQTASITCSGDSIPSKYAHWYQQKPGQAPVLVIYGKSHRPSGIPERFSGSNSGNTATLTISGTQAEDEADYYCAAWDLLGDGWVFGGGTKLTVLG
notes: Fab from phage display panning on Fc-ZNRF3 ECD; Light chain Lch-lambda3, heavy chain Hch-VH1B; the heavy chain entry carries C-terminal tags; also called ZNRF3 hFab

The target of the assay “RSPO1-GFP” is B3. As to the kind of experiment: cell-based binding assay: RSPO1-GFP conditioned medium for 1 hour on transfected HEK293 cells, immunofluorescence. The protocol:
(§1) Since ZNRF3 regulates the membrane level of Frizzled proteins, we tested whether R-spondin enhances Wnt signaling through inhibiting ZNRF3. […] To do so, the inventors transiently transfected HEK293 cells with N-terminal Myc-tagged FZD4 (Frizzled 4), or ZNRF3 ECD-TM, or ZNRF3 P103A ECD-TM, then incubated these cells with RSPO1-GFP conditioned medium for 1 hour. We determined the binding of RSPO1-GFP to Myc tagged proteins expressed on the cell surface using immunoflurorescence using anti-GFP and anti-Myc antibodies.

Assay [1] concerns the target T1, Fc-ZNRF3 ECD (extracellular domain, amino acids 56-219 of SEQ ID NO: 1) (human, UniProt Q9ULT6 56-219).
T1 construct: The order of the parts follows the printed name 'Fc-ZNRF3 ECD'; also called purified ZNRF3 extracellular domain; not shown: Fc part
T1 sequence: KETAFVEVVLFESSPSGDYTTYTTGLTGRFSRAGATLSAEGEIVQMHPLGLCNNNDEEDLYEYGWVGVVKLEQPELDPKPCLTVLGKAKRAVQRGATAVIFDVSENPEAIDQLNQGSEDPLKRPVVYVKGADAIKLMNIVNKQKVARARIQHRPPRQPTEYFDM
As to the kind of experiment: ELISA on Fc-ZNRF3 ECD.

The target of assay [2] is T2, ZNRF3 ΔRING (missing amino acids 293-334), stably expressed on HEK293 cells (human, UniProt Q9ULT6 56-936).
T2 construct: No tag is stated for the cell line used in FACS; also called ZNRF3 lacking the RING domain
T2 sequence: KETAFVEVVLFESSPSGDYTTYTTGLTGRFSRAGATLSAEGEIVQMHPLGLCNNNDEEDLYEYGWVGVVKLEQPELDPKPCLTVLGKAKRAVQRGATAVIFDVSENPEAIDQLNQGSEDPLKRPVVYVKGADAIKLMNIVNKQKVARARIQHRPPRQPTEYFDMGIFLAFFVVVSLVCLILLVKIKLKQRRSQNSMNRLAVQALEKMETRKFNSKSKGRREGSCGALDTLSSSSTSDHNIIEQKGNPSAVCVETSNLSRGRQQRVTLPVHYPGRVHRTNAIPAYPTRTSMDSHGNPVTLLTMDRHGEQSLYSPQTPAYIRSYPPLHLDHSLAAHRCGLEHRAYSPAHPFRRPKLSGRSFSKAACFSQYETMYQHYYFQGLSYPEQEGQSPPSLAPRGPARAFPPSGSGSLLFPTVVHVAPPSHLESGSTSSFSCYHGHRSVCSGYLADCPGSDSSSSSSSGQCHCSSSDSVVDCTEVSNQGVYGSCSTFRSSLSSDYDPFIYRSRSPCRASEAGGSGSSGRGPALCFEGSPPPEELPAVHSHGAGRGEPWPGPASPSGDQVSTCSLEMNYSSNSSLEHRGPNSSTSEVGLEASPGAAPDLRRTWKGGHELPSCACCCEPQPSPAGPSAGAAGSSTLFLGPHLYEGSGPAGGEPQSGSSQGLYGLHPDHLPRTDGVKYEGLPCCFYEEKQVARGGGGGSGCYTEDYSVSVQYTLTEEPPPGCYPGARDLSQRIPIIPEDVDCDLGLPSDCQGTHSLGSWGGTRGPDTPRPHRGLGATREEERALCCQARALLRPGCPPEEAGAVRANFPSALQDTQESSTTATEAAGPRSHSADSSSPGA
Put plainly: FACS on HEK293 cells stably expressing ZNRF3 ΔRING.

Assay [3] has as its target T3, N-terminal Myc-tagged FZD4 (Frizzled 4) (UniProt Q9ULV1 37-537, limits assumed).
T3 construct: whole, on cells; On transiently transfected HEK293 cells; not shown: N-terminal Myc tag
T3 sequence (looked up): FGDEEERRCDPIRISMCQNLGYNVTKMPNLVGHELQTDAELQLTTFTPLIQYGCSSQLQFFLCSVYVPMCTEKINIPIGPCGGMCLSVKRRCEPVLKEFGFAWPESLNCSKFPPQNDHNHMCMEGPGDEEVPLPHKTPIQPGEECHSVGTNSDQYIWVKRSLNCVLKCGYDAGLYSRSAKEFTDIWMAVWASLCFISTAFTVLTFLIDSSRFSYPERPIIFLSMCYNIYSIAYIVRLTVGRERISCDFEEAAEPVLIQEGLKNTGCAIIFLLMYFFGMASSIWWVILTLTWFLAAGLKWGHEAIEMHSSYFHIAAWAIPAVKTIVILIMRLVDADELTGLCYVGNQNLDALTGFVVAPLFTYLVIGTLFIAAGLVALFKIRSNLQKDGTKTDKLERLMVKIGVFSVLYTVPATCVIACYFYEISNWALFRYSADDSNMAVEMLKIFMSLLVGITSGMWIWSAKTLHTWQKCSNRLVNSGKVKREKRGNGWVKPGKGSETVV
Put plainly: cell-based binding assay: RSPO1-GFP conditioned medium for 1 hour on transfected HEK293 cells, immunofluorescence. The protocol: as §1

For B1, the binding result with RSPO1-GFP is reported as “no binding”.

Take B2: the binding result in assay [1] and in assay [2] was “binds” each time.

B3: in assay [3], the binding result is “no binding”.

Turning to B4, the binding result in assay [1] and in assay [2] was “binds” each time.
